From US20240132622A1 (Bristol-Myers Squibb, published 2024)

Key:
[1] = target: extracellular matrix (ECM) proteins; test: ECM plate ELISA (Matrigel), 1 uM antibody, A450 over wells without sample
recombinant human PAD4 [2] = target: T1, recombinant human PAD4 (human, UniProt Q9UM07 1-663); test: SPR 37 C, captured antibody, PAD4 analyte, 1 mM CaCl2
T1 construct: also called rhPAD4; hPAD4
Method: Their binding to human PAD4 was measured by Surface Plasmon Resonance (SPR). SPR measurements were performed with a Biacore® 8K, 8K+, or T200 instrument (Cytiva). The association rate constants, kₒₙ, dissociation rate constants, koff, and equilibrium dissociation constants, KD, of the antibodies with PAD4 were determined from these SPR measurements.
(§1) For SPR measurements, either an anti-human capture surface or Protein A surface (Cytiva catalog #29127555) was used. Anti-human capture surface was prepared by immobilizing anti-human capture antibody (Cytiva catalog #29234600) onto flow cells of a CM5 or CM4 biosensor following the manufacturer's amine coupling protocol (Cytiva catalog #BR-1006-33). SPR experiments were conducted at 37° C. using HBS-P (150 mM NaCl, 10 mM HEPES, pH 7.6, 0.05% Tween-20) (TEKNOVA catalog #H8032) with additional 150 mM NaCl and 1 mM or 2 mM CaCl₂) (see Table 2) or 2 mM EDTA (see Table 3) as running buffer. Antibodies were diluted to 1.5 μg/mL in the running buffer, and were captured across active biosensor flow cells at 10 μL/min for 15 to 30 seconds. […] The association and dissociation of the antibodies with PAD4 were measured. One 30 second injection followed by one 15 second injection of 10 mM glycine pH 1.5 was used to regenerate the Protein A capture surface between assay cycles. For anti-human capture surface, two 30 second injections of 3 M MgCl₂ was used for regeneration. SPR measurements for mAb20 and mAb 13 SPR were done in the presence of 2 mM CaCl₂). The remaining antibodies were tested in the presence of 1 mM CaCl₂).
(§2) Rate constants kₒₙ and koff were derived from reference flow cell- and 0 nM blank-subtracted sensorgrams, and were fit to a 1:1 binding model in Biacore® Insight Evaluation software version 3.0.12.15655. Deviations from 1:1 binding model were observed, which may be caused by increased dimerization of PAD4 at higher concentrations. The equilibrium dissociation constant, KD, was calculated as the ratio of rate constants koff/kₒₙ for each PAD4 antibody.

recombinant human PAD4 [3] = target: T1, recombinant human PAD4; test: SPR 37 C, captured antibody, PAD4 analyte, 2 mM EDTA
Method: as §1
as §2, with “antibody. For those antibodies that were tested in multiple SPR experiments, the average value and standard deviation from two or three separate experiments are listed in Tables 2 and 3.” for “antibody.”

recombinant human PAD4 [4] = target: T1, recombinant human PAD4; test: cell-based or functional assay

T1 sequence (Q9UM07 whole entry): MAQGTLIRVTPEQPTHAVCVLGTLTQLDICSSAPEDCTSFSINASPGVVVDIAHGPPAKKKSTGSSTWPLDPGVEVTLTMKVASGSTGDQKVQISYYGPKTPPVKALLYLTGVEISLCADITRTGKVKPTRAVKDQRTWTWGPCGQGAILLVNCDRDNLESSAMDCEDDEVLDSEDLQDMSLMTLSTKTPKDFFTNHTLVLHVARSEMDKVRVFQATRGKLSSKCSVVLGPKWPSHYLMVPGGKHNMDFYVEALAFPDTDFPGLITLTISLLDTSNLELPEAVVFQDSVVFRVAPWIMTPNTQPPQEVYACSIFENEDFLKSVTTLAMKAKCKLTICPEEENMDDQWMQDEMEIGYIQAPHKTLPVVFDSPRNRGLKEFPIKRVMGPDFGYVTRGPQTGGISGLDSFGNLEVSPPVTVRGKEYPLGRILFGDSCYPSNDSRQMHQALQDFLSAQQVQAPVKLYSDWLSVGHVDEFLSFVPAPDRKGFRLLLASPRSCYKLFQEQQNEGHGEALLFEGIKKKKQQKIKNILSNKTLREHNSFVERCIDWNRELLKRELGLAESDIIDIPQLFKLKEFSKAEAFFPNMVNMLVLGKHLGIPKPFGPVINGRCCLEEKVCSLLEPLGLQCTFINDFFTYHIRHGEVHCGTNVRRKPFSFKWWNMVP

Row | Binder | ECM Score (1 µM) [1] | Kd (recombinant human PAD4 [2]) [nM] | koff (recombinant human PAD4 [2]) [s⁻¹] | kon (recombinant human PAD4 [2]) [M⁻¹ s⁻¹] | Kd (recombinant human PAD4 [3]) [nM] | koff (recombinant human PAD4 [3]) [s⁻¹] | kon (recombinant human PAD4 [3]) [M⁻¹ s⁻¹] | IC50 (average), PAD4 citrullination of peptide …, RapidFire MS (recombinant human PAD4 [4]) [nM]
1 | hz20-5 (antibody, V domains shown, light constant region not tied to this antibody) VH: QVQLVQSGAEVKKPGASVKVSCKASGYTFTNYGISWVRQRPGQGLEWIGEIYPRSGNTYHNEKFKDRVTMTADTSTSTVYMELSSLRSEDTAVYYCARSMITTRYWYFDVWGKGTTVTVSS VL: DIVMTQSPDSLAVSLGERATINCRASESVDTYGNSFMHWYQQKPGQPPKLLIYLASNLESGVPDRFSGSGSGTDFTLTISSLQAEDVAVYYCQQNNEDPLTFGAGTKLELK | 3 | 1.9 | 0.00045 | 250000 | 1.7 | 0.0004 | 240000 | 56.5
2 | hz20-3 (antibody, V domains shown, light constant region not tied to this antibody) VH: EVQLVQSGAEVKKPGASVKVSCKASGYTFTNYGISWVRQAPGQGLEWMGEIYPRSGNTYHNEKFKDRVTMTADKSTSTAYMELRSLRSDDTAVYFCARSMITTRYWYFDVWGQGTLVTVSS VL: DIQMTQSPSSLSASVGDRVTITCRASESVDTYGNSFMHWYQQKPGKAPKLLIYLASNLESGVPSRFSGSGSGTDFTLTISSLQPEDFATYYCQQNNEDPLTFGQGTKVEIK | 20 | 0.5 | 0.00023 | 500000 | 0.9 | 0.00031 | 340000 | 58
3 | hz20-2 (antibody, IgG1, V domains shown, also called clone 20-based hz20-2 antibody) VH: QVQLVQSGAEVKKPGASVKVSCKASGYTFTNYGISWVRQAPGQGLEWMGEIYPRSGNTYHNEKFKDRVTMTTDTSTSTAYMELRSLRSDDTAVYYCARSMITTRYWYFDVWGQGTLVTVSS VL: DIQMTQSPSSLSASVGDRVTITCRASESVDTYGNSFMHWYQQKPGKAPKLLIYLASNLESGVPSRFSGSGSGTDFTLTISSLQPEDFATYYCQQNNEDPLTFGQGTKVEIK | 6 | 1.1 | 0.00029 | 290000 | 1 | 0.00032 | 310000 | 73
4 | hz20-11 (antibody, V domains shown, light constant region not tied to this antibody) VH: QVQLVQSGAEVAKPGASVKVSCKASGYTFTNYGISWVRQRPGQGLEWMGEIYPRSGNTYHNEKFKDRVTMTTDTSTSTAYMELRSLRSEDTAVYYCARSMITTRYWYFDVWGKGTTVTVSS VL: DIVMTQSPDSLAVSLGERATINCRASESVDTYGNSFMHWYQQKPGQPPKLLIYLASNLESGVPDRFSGSGSGTDFTLTISSLQAEDVAVYYCQQNNEDPLTFGQGTKLEIK | 4 | 0.9 | 0.00025 | 300000 | 0.6 | 0.00022 | 390000 | 65.7
5 | hz20-8 (antibody, V domains shown, light constant region not tied to this antibody) VH: QVQLVQSGAEVKKPGASVKVSCKASGYTFTNYGISWVRQAPGQGLEWMGEIYPRSGNTYHNEKFKDRVTMTTDTSTSTAYMELRSLRSDDTAVYYCARSMITTRYWYFDVWGKGTTVTVSS VL: DIVMTQSPDSLAVSLGERATINCRASESVDTYGNSFMHWYQQKPGQPPKLLIYLASNLESGVPDRFSGSGSGTDFTLTIDSLQAEDVAVYYCQQNNEDPLTFGQGTKLEIK | 4 | 0.8 | 0.00025 | 320000 | 0.6 | 0.00022 | 360000 | 71.9

Continued, values first:

Row | ECM Score (1 µM) [1] | Kd (recombinant human PAD4 [2]) [nM] | koff (recombinant human PAD4 [2]) [s⁻¹] | kon (recombinant human PAD4 [2]) [M⁻¹ s⁻¹] | Kd (recombinant human PAD4 [3]) [nM] | koff (recombinant human PAD4 [3]) [s⁻¹] | kon (recombinant human PAD4 [3]) [M⁻¹ s⁻¹] | IC50 (average), PAD4 citrullination of peptide …, RapidFire MS (recombinant human PAD4 [4]) [nM] | Binder
6 | 3 | 0.6 | 0.00019 | 320000 | 0.6 | 0.00021 | 380000 | 59 | hz20-12 (antibody, V domains shown, light constant region not tied to this antibody) VH: QVQLVQSGAEVAKPGASVKVSCKASGYTFTNYGISWVRQRPGQGLEWMGEIYPRSGNTYHNEKFKDRVTMTTDTSTSTAYMELRSLRSEDTAVYYCARSMITTRYWYFDVWGKGTTVTVSS VL: DIVMTQSPDSLAVSLGERATINCRASESVDTYGNSFMHWYQQKPGQPPKLLIYLASNLESGVPDRFSGSGSGTDFTLTIDSLQAEDVAVYYCQQNNEDPLTFGQGTKLEIK
7 | 20 | 0.6 | 0.0002 | 340000 | 0.4 | 0.00018 | 450000 | 56.9 | hz20-14 (antibody, V domains shown, light constant region not tied to this antibody) VH: QVQLVQSGAEVKKPGASVKVSCKASGYTFTNYGISWVRQRPGQGLEWMGEIYPRSGNTYHNEKFKDRVTMTTDKSTSTAYMELRSLRSEDTAVYYCARSMITTRYWYFDVWGKGTTVTVSS VL: DIVMTQSPDSLAVSLGERATINCRASESVDTYGNSFMHWYQQKPGQPPKLLIYLASNLESGVPDRFSGSGSGTDFTLTIDSLQAEDVAVYYCQQNNEDPLTFGQGTKLEIK
8 | 19 | 0.3 | 0.00015 | 490000 | 0.4 | 0.00018 | 480000 | 107 | hz20-9 (antibody, V domains shown, light constant region not tied to this antibody) VH: QVQLVQSGAEVKKPGASVKVSCKASGYTFTNYGISWVRQAPGQGLEWMGEIYPRSGNTYHNEKFKDRVTMTTDKSTSTAYMELRSLRSDDTAVYYCARSMITTRYWYFDVWGKGTTVTVSS VL: DIVMTQSPDSLAVSLGERATINCRASESVDTYGNSFMHWYQQKPGQPPKLLIYLASNLESGVPDRFSGSGSGTDFTLTISSLQAEDVAVYYCQQNNEDPLTFGQGTKLEIK
9 | 19 | 0.5 | 0.00019 | 390000 | 0.4 | 0.00018 | 440000 | 52.6 | hz20-13 (antibody, V domains shown, light constant region not tied to this antibody) VH: QVQLVQSGAEVKKPGASVKVSCKASGYTFTNYGISWVRQRPGQGLEWMGEIYPRSGNTYHNEKFKDRVTMTTDKSTSTAYMELRSLRSEDTAVYYCARSMITTRYWYFDVWGKGTTVTVSS VL: DIVMTQSPDSLAVSLGERATINCRASESVDTYGNSFMHWYQQKPGQPPKLLIYLASNLESGVPDRFSGSGSGTDFTLTISSLQAEDVAVYYCQQNNEDPLTFGQGTKLEIK
10 | 16 | 0.6 | 0.00025 | 390000 | 1.2 | 0.00037 | 300000 | 64 | hz20-6 (antibody, V domains shown, light constant region not tied to this antibody) VH: QVQLVQSGAEVKKPGASVKLSCKATGYTFTNYGISWVRQAPGQGLEWIGEIYPRSGNTYHNEKFKDRVTLTADKSSSTAYMEFRSLRSDDTAVYFCARSMITTRYWYFDVWGQGTLVTVSS VL: DIQMTQSPSSLSASVGDRVTITCRASESVDTYGNSFMHWYQQKPGKAPKLLIYLASNLESGVPSRFSGSGSGTDFTLTISSLQPEDFATYYCQQNNEDPLTFGQGTKVEIK
11 | 18 | 0.3 | 0.00017 | 640000 | 0.4 | 0.00018 | 480000 | 57.4 | hz20-10 (antibody, V domains shown, light constant region not tied to this antibody) VH: QVQLVQSGAEVKKPGASVKVSCKASGYTFTNYGISWVRQAPGQGLEWMGEIYPRSGNTYHNEKFKDRVTMTTDKSTSTAYMELRSLRSDDTAVYYCARSMITTRYWYFDVWGKGTTVTVSS VL: DIVMTQSPDSLAVSLGERATINCRASESVDTYGNSFMHWYQQKPGQPPKLLIYLASNLESGVPDRFSGSGSGTDFTLTIDSLQAEDVAVYYCQQNNEDPLTFGQGTKLEIK
12 | 1 | 0.2 | 0.00015 | 880000 | 0.3 | 0.0004 | 1.3e+06 | 125 | hz13-1 (antibody, V domains shown, light constant region not tied to this antibody) VH: EVQLVQSGAEVKKPGASVKVSCTSSDFNIKDHFIHWVRQAPGKGLEWMGRIDPEDDETKYAPKFQDRVTMTADTSTDTAYMELSSLRSEDTAVYYCAGYGNYEGAMDYWGQGTLVTVSS VL: DIQMTQSPSSLSASVGDRVTITCRASENVNNYGIGFMNWYQQKPGKAPKLLIYAASRRGSGVPSRFSGSGSGTDFTLTISSLQPEDFATYYCQQSKEVPYTFGQGTKVEIK
